# Patent US20210380660A1 (OREGON HEALTH AND SCIENCE UNIVERSITY, published 2021)
# T1: recombinant human CD74 (C27S) (human, UniProt P04233 1-216)
# T1 chain: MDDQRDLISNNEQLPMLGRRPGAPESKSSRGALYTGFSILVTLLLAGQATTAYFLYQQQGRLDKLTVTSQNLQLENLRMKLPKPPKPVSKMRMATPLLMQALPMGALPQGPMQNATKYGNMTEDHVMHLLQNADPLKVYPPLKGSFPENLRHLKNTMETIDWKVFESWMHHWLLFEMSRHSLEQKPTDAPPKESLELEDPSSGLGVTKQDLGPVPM
# T2: mouse CD74 (mouse, UniProt P04441-2 1-215, limits assumed)
# T2 construct: Native protein pulled down from splenocyte lysate; also called mCD74; immunoprecipitated mouse CD74
# T2 sequence (looked up): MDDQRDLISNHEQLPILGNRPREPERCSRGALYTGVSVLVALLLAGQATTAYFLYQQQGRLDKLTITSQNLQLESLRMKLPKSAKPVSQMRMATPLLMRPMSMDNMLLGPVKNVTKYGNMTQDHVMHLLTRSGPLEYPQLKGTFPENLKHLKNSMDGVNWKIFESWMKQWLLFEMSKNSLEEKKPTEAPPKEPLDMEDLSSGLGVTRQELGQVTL
# Key:
# [1] = target: T1, recombinant human CD74 (C27S); assay: competition ELISA against MIF for rhCD74
# [2] = target: T1, recombinant human CD74 (C27S); assay: direct binding ELISA on rhCD74 (legend of FIG. 6A)
# [3] = target: T1, recombinant human CD74 (C27S); assay: competition ELISA: MIF coated, rhCD74 with serially diluted construct, bound rhCD74 detected
# [4] = target: T1, recombinant human CD74 (C27S); assay: direct binding ELISA, rhCD74 (C27S) coated, construct detected with anti-MOG antibody, one-site fit
# mouse CD74 = target: T2, mouse CD74; assay: competition with FITC-labelled P2 peptide on immunoprecipitated mouse CD74, gel densitometry, one-site fit
# Protocol: For competition experiments, ELISA plates were coated with MIF at room temperature at a concentration of 0.5 μg/ml in TBS. Plates were then blocked overnight with 5% BSA in TBS and 0.0125% T20 followed by the addition of a competitive mix containing rhCD74 with serially diluted DRα1 constructs prepared in 5% BSA/TBS plus 0.0125% T20 for 1.5 hours at 25° C. Bound rhCD74 was detected with a monoclonal antibody that specifically recognizes human CD74 in a region away from the putative MIF/D-DT binding site. Absorbance at 450 nm was determined and data were analyzed with Prism, the parameters were calculated with the competition equation included in the software. For competition between DRα1-hMOG-35-55 and P2 peptide (see next section), mouse CD74 was immunoprecipitated from DR*1501 Tg mouse splenocytes and a competition experiment was set. 2.5 μl of P2 peptide were used with increasing concentrations of DRα1-hMOG-35-55 protein. Bound peptide was eluted from the immunoprecipitation with 2% SDS and analyzed in a 16.5% PAG Tris/Tricine. The gel was scanned for FITC and fluorescence was quantified by densitometry. P2 fluorescence vs. DRα1 competitor was plotted and data analyzed with Prism. The relative density values were fit to a One-binding site equation. […]
Binder,IC50 [1] [nM],Kd [2] [nM],IC50 [3] [nM],Kd [4] [nM],Kd (mouse CD74) [nM]
"DRα1-mMOG-35-55 (other, also called DRα1 with mouse MOG-35-55 peptide) MEVGWYRSPFSRVVHLYRNGKGGGGSLVPRGSGGGGIKEEHVIIQAEFYLNPDQSGEFMFDFDGDEIFHVDMAKKETVWRLEEFGRFASFEAQGALANIAVDKANLEIMTKRSNYTPITN",,,937,,
"DRα1-hMOG-35-55 (other, also called DRα1-human(h)MOG-35-55; DRα1 with human MOG-35-55 peptide) MEVGWYRPPFSRVVHLYRNGKGGGGSLVPRGSGGGGIKEEHVIIQAEFYLNPDQSGEFMFDFDGDEIFHVDMAKKETVWRLEEFGRFASFEAQGALANIAVDKANLEIMTKRSNYTPITN",1600,650,1640,702,750

# Stronger by IC50 [3], values ahead:
IC50 [1] [nM],Kd [2] [nM],IC50 [3] [nM],Kd [4] [nM],Kd (mouse CD74) [nM],Binder
,,828,,,"DRmQ (other, also called DRα1-mMOG-35-55 with glutamine substitution) MEVGWYRSPFSRVVHLYRNGKGGGGSLVPRGSGGGGIKEEHVIIQAEFYQNPDQSGEFMFDFDGDEIFHVDMAKKETVWRLEEFGRFASFEAQGALANIAVDKANLEIMTKRSNYTPITN"
280,89,298,91.1,,"DRhQ (other, Made in E. coli; also called DRα1-hMOG-35-55 with glutamine substitution; L50Q) MEVGWYRPPFSRVVHLYRNGKGGGGSLVPRGSGGGGIKEEHVIIQAEFYQNPDQSGEFMFDFDGDEIFHVDMAKKETVWRLEEFGRFASFEAQGALANIAVDKANLEIMTKRSNYTPITN"
